Data as given in patent US20260201038A1 (CELLABMED, published 2026).

Assays:
[1] = biological target: B7-H3 on human cancer cells (human) (UniProt Q5ZPR3); assay: flow cytometry on Panc-1 pancreatic cancer cells; control (secondary antibody only) < 15%
[2] = biological target: B7-H3 on human cancer cells (human) (UniProt Q5ZPR3); assay: flow cytometry on A172 brain tumor cells; control (secondary antibody only) < 25%
[3] = biological target: B7-H3 on human cancer cells (human) (UniProt Q5ZPR3); assay: flow cytometry on PC-3 prostate cancer cells; control (secondary antibody only) < 20%
[4] = biological target: T1, B7-2 (UniProt P42081 24-247, limits assumed); assay: indirect ELISA, B7-2 coated at 1 ug/mL, absorbance at 450 nm
T1 sequence (looked up): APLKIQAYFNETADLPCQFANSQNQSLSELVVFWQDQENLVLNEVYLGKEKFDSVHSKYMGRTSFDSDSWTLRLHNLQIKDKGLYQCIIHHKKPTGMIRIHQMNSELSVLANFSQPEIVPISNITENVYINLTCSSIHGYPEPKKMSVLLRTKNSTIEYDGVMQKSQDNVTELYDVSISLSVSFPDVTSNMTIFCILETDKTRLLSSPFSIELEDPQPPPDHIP
Description: [The procedure below names another target; the source lists this target under the same test.] The binding ability of 2D IgG prepared in Example 2 for recombinant B7-H3 protein was investigated by indirect ELISA. For indirect ELISA, recombinant human 4lg B7-H3, recombinant human 2lg B7-H3 and recombinant mouse B7-H3 were diluted respectively to 1 μg/mL in 50 μL of PBS and adsorbed overnight onto a 96-well immunoplate (Corning, USA) by storing at 4° C. After reaction with a buffer solution containing 3% bovine serum albumin at room temperature for 1 hour, followed by washing 3 times with a buffer solution containing 0.5% Tween 20, each well was treated with 50 μL of the antibodies diluted serially (0.0001, 0.0003, 0.001, 0.003, 0.01, 0.03, 0.1, 0.3, 1, 3 and 10 nM). For antigen-antibody binding, the mixture was reacted at room temperature for 2 hours, and then washed 3 times with a buffer solution containing 0.5% Tween 20. After treating each well with 50 μL of anti-human immunoglobulin Fc-HRP antibodies (Jackson Immunoresearch, USA) diluted to 1:3,000, reaction was conducted at room temperature for 1 hour. […] As a result of measuring absorbance at 450 nm using a spectrophotometer (Biotek, USA), it was confirmed that 2D IgG binds to B7-H3, and the binding ability was in the order of 4lg B7-H3, 2lg B7-H3 and mouse B7-H3 (FIG. 2a). […]

[5] = biological target: B7-H3 on human cancer cells (human) (UniProt Q5ZPR3); assay: flow cytometry on A549 lung cancer cells; control (secondary antibody only) < 5%
[6] = biological target: T2, LWFCLTGALEVQVPE; assay: peptide microarray, 15-mers of human 4Ig B7-H3; panel Ig-like-V type 1
T2 construct: 15-mer of human 4Ig B7-H3 on the peptide microarray, panel Ig-like-V type 1
T2 peptide: LWFCLTGALEVQVPE
Description: (§1) It was confirmed that G2D IgG has linear epitopes since G2D was verified to recognize 4lg B7-H3 through western blot (FIG. 10a). Therefore, linear epitope mapping was conducted by Pepperprint GmbH (Germany). After preparing a peptide microarray from the 15 4lg B7-H3 amino acids with 14-amino acid overlaps, the antibodies binding to peptides were identified using secondary antibodies (FIG. 10b). As a result, it was confirmed that G2D IgG binds to a peptide having a sequence of EVQVP (FIG. 10c). EVQVP is located in the Ig-like V-type1 and Ig-like V-type2 domains of 4lg B7-H3 (FIGS. 10d and 10e). When the epitopes of the control antibody enoblituzumab were identified by the same method, it was confirmed that the epitopes include the sequence of GYPEAE (FIG. 10b), and GYPEAE is located in the Ig-like C2-type1 and Ig-like C2-type2 domains of 4lg B7-H3 (FIGS. 10d and 10e). As a result, it was confirmed that G2D IgG and the control antibody enoblituzumab have different epitopes.

[7] = biological target: T3, TGALEVQVPEDPVVA; assay: as above
T3 construct: 15-mer of human 4Ig B7-H3 on the peptide microarray, panel Ig-like-V type 1
T3 peptide: TGALEVQVPEDPVVA
Description: as §1

[8] = biological target: T4, FCLTGALEVQVPEDP; assay: as above
T4 construct: 15-mer of human 4Ig B7-H3 on the peptide microarray, panel Ig-like-V type 1
T4 peptide: FCLTGALEVQVPEDP
Description: as §1

[9] = biological target: T5, ALWFCLTGALEVQVP; assay: as above
T5 construct: 15-mer of human 4Ig B7-H3 on the peptide microarray, panel Ig-like-V type 1
T5 peptide: ALWFCLTGALEVQVP
Description: as §1

[10] = biological target: T6, WFCLTGALEVQVPED; assay: as above
T6 construct: 15-mer of human 4Ig B7-H3 on the peptide microarray, panel Ig-like-V type 1
T6 peptide: WFCLTGALEVQVPED
Description: as §1

[11] = biological target: T7, LEVQVPEDPVVALVG; assay: as above
T7 construct: 15-mer of human 4Ig B7-H3 on the peptide microarray, panel Ig-like-V type 1
T7 peptide: LEVQVPEDPVVALVG
Description: as §1

[12] = biological target: T8, CLTGALEVQVPEDPV; assay: as above
T8 construct: 15-mer of human 4Ig B7-H3 on the peptide microarray, panel Ig-like-V type 1
T8 peptide: CLTGALEVQVPEDPV
Description: as §1

[13] = biological target: T9, GALEVQVPEDPVVAL; assay: as above
T9 construct: 15-mer of human 4Ig B7-H3 on the peptide microarray, panel Ig-like-V type 1
T9 peptide: GALEVQVPEDPVVAL
Description: as §1

[14] = biological target: T10, LTGALEVQVPEDPVV; assay: as above
T10 construct: 15-mer of human 4Ig B7-H3 on the peptide microarray, panel Ig-like-V type 1
T10 peptide: LTGALEVQVPEDPVV
Description: as §1

B1: G2D IgG (antibody, V domains shown)
VH: QVQLVESGGGLVQPGGSLRLSCSASGFDFSSYPMVWVRQAPGKGLEYVSSINSGGSWTGYGAAVKGRATISRDNSKNTLYLQMNSLRAEDTATYYCARAYGAATIDAWGQGTTVTVSS
VL: SYELTQPPSVSVSPGQTARITCSGGSIGYGWYQQKAPGQAPVTVIYYNDRRPSGIPERFSGSKSGTTNTLTISGVQAEDEADYYCGSADSSSTYTGIFGGGTKLTVL
notes: The back-substitutions (L46T, S66K, V71N in VL); also called humanized 2D; G2D antibody
- % of cells in the positive gate [1]: > 95%
- % of cells in the positive gate [2]: > 95%
- % of cells in the positive gate [3]: > 95%
- binding result [4]: no binding (tested: 10 nM)
- % of cells in the positive gate [5]: > 95%
- fluorescence intensity of the peptide spot [6]: 17.3
- fluorescence intensity of the peptide spot [7]: 21
- fluorescence intensity of the peptide spot [8]: 63
- fluorescence intensity of the peptide spot [9]: 122
- fluorescence intensity of the peptide spot [10]: 24.8
- fluorescence intensity of the peptide spot [11]: 30.5
- fluorescence intensity of the peptide spot [12]: 138
- fluorescence intensity of the peptide spot [13]: 20
- fluorescence intensity of the peptide spot [14]: 154
